The results in this text go back to FireProtDB.

The conditions of the data set: whole UniProt chain shown.
[1] abbreviates: Homo sapiens, pH 2.2, 25 °C, GdnHCl, CD, Sodium cacodylate 50 mM, NaCl 50 mM.
[2] abbreviates: Homo sapiens, pH 8, 25 °C, GdnHCl, CD, Tris-HCl 20 mM.
Where [3] appears, read: Gallus gallus, pH 7, 25 °C, GdnHCl, Fluorescence, Phosphate 10 mM, NaCl 50 mM.
[4] abbreviates: Escherichia phage lambda, pH 5.6, 37 °C, Urea, CD, Acetic acid(deuterated) 10 mM, NaCl 100 mM, reversible: yes.
The mark [5] stands for this setting: Escherichia phage lambda, pH 6.6, 20 °C, GdnHCl, CD, Potassium phosphate 50 mM, KCl 100 mM, reversible: yes.
The mark [6] stands for this setting: Escherichia phage lambda, pH 7, 5 °C, GdnHCl, CD, Potassium phosphate 50 mM, KCl 100 mM, reversible: yes (70-100%).
The mark [7] stands for this setting: Escherichia phage lambda, pH 7, 25 °C, GdnHCl, CD, Potassium phosphate 50 mM, KCl 100 mM, reversible: yes (70-100%).
The mark [8] stands for this setting: Escherichia phage lambda, pH 7, Thermal, DSC, Bis-Tris 10 mM, KCl 200 mM, reversible: yes (88%).
The mark [9] stands for this setting: Escherichia phage lambda, pH 7, Thermal, DSC, Bis-Tris 10 mM, KCl 200 mM, reversible: yes.
The mark [10] stands for this setting: Escherichia phage lambda, pH 8, Thermal, CD, KD2PO4 20 mM, NaCl 100 mM, reversible: yes (>90%).
The mark [11] stands for this setting: Escherichia phage lambda, pH 8, Thermal, DSC, Potassium phosphate 10 mM, KCl 200 mM, reversible: no.
Setting [12] is: Escherichia phage lambda, pH 8, Thermal, DSC, Potassium phosphate 10 mM, KCl 200 mM, reversible: yes (95%).
Where [13] appears, read: Hirudo medicinalis, pH 5.4, 25 °C, GdnHCl, CD, KH2PO4-NaOH 10 mM, reversible: yes.

“And” between values parts separate entries of the source, which are not always exact repeats. Equal values may be shown once.

B1: Alpha-lactalbumin wild type, P00709 (protein)
chain: MRFFVPLFLVGILFPAILAKQFTKCELSQLLKDIDGYGGIALPELICTMFHTSGYDTQAIVENNESTEYGLFQISNKLWCKSSQVPQSRNICDISCDKFLDDDITDDIMCAKKILDIKGIDYWLAHKALCTEKLEQWLCEKL
With B1, under setting [1], the denaturant m value was 0.95 kcal/mol/M, the “denaturant midpoint (higher = more stable)” value (“denaturant midpoint” for short) was determined as 4.67 M and the unfolding free energy amounted to 4.45 kcal/mol. Besides, under “Homo sapiens, pH 7, Thermal, CD, Sodium cacodylate 50 mM, NaCl 50 mM, reversible: yes”, the “heat capacity change of unfolding” value is 1.1 kcal/mol/K. Further, the unfolding free energy (Homo sapiens, pH 7.3, 25 °C, GdnHCl, CD, Tris-HCl 0.05 M, reversible: yes) came out at 6.8 kcal/mol. Moreover, under setting [2], the denaturant m value worked out at 0.85 kcal/mol/M, the “denaturant midpoint” value stood at 3.09 M and the unfolding free energy stood at 2.63 kcal/mol.

B2: Riboflavin-binding protein wild type, P02752 (protein)
chain: MLRFAITLFAVITSSTCQQYGCLEGDTHKANPSPEPNMHECTLYSESSCCYANFTEQLAHSPIIKVSNSYWNRCGQLSKSCEDFTKKIECFYRCSPHAARWIDPRYTAAIQSVPLCQSFCDDWYEACKDDSICAHNWLTDWERDESGENHCKSKCVPYSEMYANGTDMCQSMWGESFKVSESSCLCLQMNKKDMVAIKHLLSESSEESSSMSSSEEHACQKKLLKFEALQQEEGEERR
Take B2: under setting [3], the denaturant m value amounted to 4.14 kcal/mol/M and the unfolding free energy was 2.78 kcal/mol.

B3: Repressor protein cI wild type, P03034 (protein)
chain: MSTKKKPLTQEQLEDARRLKAIYEKKKNELGLSQESVADKMGMGQSGVGALFNGINALNAYNAALLAKILKVSVEEFSPSIAREIYEMYEAVSMQPSLRSEYEYPVFSHVQAGMFSPELRTFTKGDAERWVSTTKKASDSAFWLEVEGNSMTAPTGSKPSFPDGMLILVDPEQAVEPGDFCIARLGGDEFTFKKLIRDSGQVFLQPLNPQYPMIPCNESCSVVGKVIASQWPEETFG
Take B3: the denaturant m value runs as follows: under setting [4], 1.23 kcal/mol/M; under setting [5], 2.3 kcal/mol/M; under setting [6], 2.5 kcal/mol/M; under setting [7], 2.4 kcal/mol/M. The unfolding free energy reads like this: under setting [4], 3.27 kcal/mol; under setting [5], 5.2 kcal/mol; under setting [6], 6 kcal/mol; under setting [7], 4.8 kcal/mol; (Escherichia phage lambda, pH 7, 25 °C, Urea, CD, Sodium phosphate 20 mM, NaCl 100 mM, reversible: Yes) 2.4 kcal/mol; (Escherichia phage lambda, pH 7.5, 22 °C, Urea, CD, Potassium phosphate 10 mM, KCl 50 mM) 0 kcal/mol. Further, the unfolding free energy is 4.6 kcal/mol (Escherichia phage lambda, pH 8, 13 °C, Urea, CD, KD2PO4 20 mM, NaCl 100 mM, reversible: yes (>90%)); 4.3 kcal/mol (Escherichia phage lambda, pH 8, 25 °C, Urea, CD, KD2PO4 20 mM, NaCl 100 mM, reversible: yes (>90%)); 2.09 kcal/mol and 1 kcal/mol (Escherichia phage lambda, pH 8, 25 °C, Urea, Fluorescence, Potassium phosphate 0.1 M, reversible: yes); 0.86 kcal/mol (Escherichia phage lambda, pH 8, 37 °C, Urea, CD, Potassium phosphate 4 mM, NaCl 20 mM). Moreover, the “denaturant midpoint” value amounted to 2.52 M under setting [6] and 2.03 M under setting [7]. Also, the midpoint of thermal melting (Tm) was determined as 54 °C (Escherichia phage lambda, pH 7, Thermal, CD, Potassium phosphate 10 mM, KCl 100 mM); 55 °C (Escherichia phage lambda, pH 7, Thermal, CD, Potassium phosphate 50 mM, KCl 100 mM, reversible: yes (60-75%)); 55.7 °C (Escherichia phage lambda, pH 7, Thermal, CD, Potassium phosphate 50 mM, KCl 100 mM, reversible: yes (70-100%)); 57 °C (Escherichia phage lambda, pH 7, Thermal, CD, Potassium phosphate 50 mM, KCl 100 mM); 73.3 °C under setting [8]; 50.7 °C under setting [9]. In addition, the Tm by setting is: (Escherichia phage lambda, pH 7.5, Thermal, CD, Potassium phosphate 10 mM, KCl 50 mM) 49 °C; under setting [10], 57.2 °C; under setting [11], 53.4 °C and 51.5 °C; under setting [12], 53.9 °C. Further, the “unfolding enthalpy (calorimetric)” value under setting [8] stood at 82.4 kcal/mol; the “unfolding enthalpy (calorimetric)” value under setting [9] was 50.9 kcal/mol; the “unfolding enthalpy (calorimetric)” value under setting [11] was 65.5 kcal/mol and 65 kcal/mol; the “unfolding enthalpy (calorimetric)” value under setting [12] amounted to 53.4 kcal/mol. In addition, the “unfolding enthalpy (van 't Hoff)” value under setting [8] was determined as 348 kcal/mol; the “unfolding enthalpy (van 't Hoff)” value under setting [9] turned out to be 332 kcal/mol; the “unfolding enthalpy (van 't Hoff)” value under setting [10] was determined as 68 kcal/mol; the “unfolding enthalpy (van 't Hoff)” value under setting [11] was found to be 69.3 kcal/mol; the “unfolding enthalpy (van 't Hoff)” value under setting [12] was found to be 79.8 kcal/mol.

B4: Eglin C wild type, P01051 (protein)
chain: TEFGSELKSFPEVVGKTVDQAREYFTLHYPQYDVYFLPEGSPVTLDLRYNRVRVFYNPGTNVVNHVPHVG
On to B4, for which, under setting [13], the denaturant m value amounted to 3.87 kcal/mol/M and the unfolding free energy came out at 6.5 kcal/mol.

B5: Ovalbumin wild type, P01012 (protein)
chain: MGSIGAASMEFCFDVFKELKVHHANENIFYCPIAIMSALAMVYLGAKDSTRTQINKVVRFDKLPGFGDSIEAQCGTSVNVHSSLRDILNQITKPNDVYSFSLASRLYAEERYPILPEYLQCVKELYRGGLEPINFQTAADQARELINSWVESQTNGIIRNVLQPSSVDSQTAMVLVNAIVFKGLWEKAFKDEDTQAMPFRVTEQESKPVQMMYQIGLFRVASMASEKMKILELPFASGTMSMLVLLPDEVSGLEQLESIINFEKLTEWTSSNVMEERKIKVYLPRMKMEEKYNLTSVLMAMGITDVFSSSANLSGISSAESLKISQAVHAAHAEINEAGREVVGSAEAGVDAASVSEEFRADHPFLFCIKHIATNAVLFFGRCVSP
B5: the Tm reads like this: (Gallus gallus, pH 6, Thermal, DSC, Na-phosphate) 72.4 °C; (Gallus gallus, pH 7, Thermal, DSC, Phosphate, transition: 3, reversible: No) 82.5 °C; (Gallus gallus, pH 7, Thermal, DSC, Unknown, transition: 3, reversible: No) 78.4 °C.
